Data set [1] addresses OsFD7, FLIM-FRET fusion (rice (Oryza sativa)). As to the kind of experiment: FRET or BRET.
The target of data set [2] is OsFD7 (OsbZIP62)-GST;OsFTL1-GST;OsGF14b-GST (Oryza sativa (rice);Oryza sativa …, UniProt B7F384;B7ELI3;Q7XTE8 1-274;1-276;1-262, ||). As to the kind of experiment: EMSA. For orientation: Mobility shift assays separate free from complexed probe on a gel.
A further data set addresses OsFTL1-GST (Oryza sativa (rice), UniProt B7ELI3 1-276). As to the kind of experiment: EMSA.
For the next data set, the target named is T1, OsFD7 (OsbZIP62)-GST (Oryza sativa (rice), UniProt B7F384 1-274).
T1 sequence: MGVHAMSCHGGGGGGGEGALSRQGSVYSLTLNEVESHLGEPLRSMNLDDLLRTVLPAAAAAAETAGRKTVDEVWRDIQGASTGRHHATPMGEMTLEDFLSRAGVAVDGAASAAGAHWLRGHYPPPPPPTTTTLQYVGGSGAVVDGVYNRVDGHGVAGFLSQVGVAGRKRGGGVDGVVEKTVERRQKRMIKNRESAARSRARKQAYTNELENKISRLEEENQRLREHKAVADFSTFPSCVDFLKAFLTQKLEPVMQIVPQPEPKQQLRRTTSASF
The data set is described as follows: EMSA.

A further data set has as its target OsGF14b-GST (Oryza sativa (rice), UniProt Q7XTE8 1-262). The data set is described as follows: EMSA.
For data set [3], the target named is OsFD7 (OsbZIP62)-GST;OsFTL1-GST (Oryza sativa (rice);Oryza sativa (rice), UniProt B7F384;B7ELI3 1-274;1-276, |). As to the kind of experiment: EMSA.

Chain of OsGF14b-GST (Q7XTE8 whole entry): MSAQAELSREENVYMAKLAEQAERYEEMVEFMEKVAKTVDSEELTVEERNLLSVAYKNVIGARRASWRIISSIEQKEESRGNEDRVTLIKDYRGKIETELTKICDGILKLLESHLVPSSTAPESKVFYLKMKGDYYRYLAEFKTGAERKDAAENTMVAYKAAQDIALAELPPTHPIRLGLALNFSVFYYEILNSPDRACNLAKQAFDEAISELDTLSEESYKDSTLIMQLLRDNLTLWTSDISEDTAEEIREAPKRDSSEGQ

In turn, “OsFTL1, FLIM-FRET fusion (natural protein)” registered an FRET efficiency in data set [1] of 23.3%.

On to “Hd3a, FLIM-FRET fusion (from UniProt Q93WI9 1-179) (natural protein)”, for which, in data set [1], the FRET efficiency worked out at 15.1%.

B1: GB oligo (dsDNA)
DNA 1: GTCACATACACGTGTCAGCTCAG
DNA 2: CTGAGCTGACACGTGTATGTGAC
On to B1, for which the binding result in data set [2] is on record as “binds”; with OsFTL1-GST it was “no binding”; in the data set with OsFD7 (OsbZIP62)-GST, “binds”; in the data set with OsGF14b-GST, “no binding”; in data set [3], “binds”.

The record behind these values is publication doi:10.1101/2021.03.09.434543.
